Where a chain is given by its changes, count along the chain named.

B1: dBBAT091-P253 (antibody, human IgG1, lambda, V domains shown)
VH: EVQLVESGGDLVKPGGGLRLSCAASGFTFSSYTMNWVRQAPGKGLEWVSSISSRSNYIDYADSVKGRFTISRDNAKNSLYLQMNSLRAEDTAVYYCARFGKKNDMNWVFDYWGQGTLVTVSS
VL: QSALTQPPSASGSPGQTVTISCTGTSTDVGFYNYVSWYQQHPGKAPKLMIYEGSKRPSGVPDRFSGSKSGNTASLTVSGLQAEDEADYFCSSYEYTESVLFGGGTKLTVLG
B2: dBBAT042-P253 (antibody, human IgG1, lambda, V domains shown)
VH: B1 VH with Y32H, V48I, I58K, D59S, F99Y, K101H, D104M, M105H
VL: B1 VL with T27S, G53V, S92T, E94R, T96D, E97Q, S98N, L100A
B3: dBBAT112-P253 (antibody, human IgG1, lambda, V domains shown)
VH: B1 VH with S31T, I58K, D59F, K101V, D104N
VL: B1 VL with T27S, G53V, T96I
B4: dBBAT037-P253 (antibody, human IgG1, lambda, V domains shown)
VH: B1 VH with S31G, K101L, D104S, M105L
VL: B1 VL with G53T, E94S, Y95G, T96A, E97S, S98I, V99L
B5: dBBAT122-P253 (antibody, human IgG1, lambda, V domains shown)
VH: B1 VH with S31T, I58K, D59F, K101G, D104N
VL: B1 VL with T27S, G53V, T96I

For one assay, the target named is T1, hCD137 (FXa digested) (human, UniProt Q07011 24-186).
T1 construct: Factor Xa digestion and Protein A removed the Fc; also called human CD137 extracellular domain
T1 sequence (Q07011 other isoform, or with tags, fused parts or gaps limits assumed): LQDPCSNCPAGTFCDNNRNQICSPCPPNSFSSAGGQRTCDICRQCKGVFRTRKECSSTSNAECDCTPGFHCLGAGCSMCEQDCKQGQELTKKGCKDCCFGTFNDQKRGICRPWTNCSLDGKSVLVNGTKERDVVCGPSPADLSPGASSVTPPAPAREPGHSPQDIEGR
The assay is described as follows: SPR, 10 uM ADP. The method, then: (§1) Biacore T200 (GE Healthcare) was used to analyze the interaction of antigen-antibody reaction between the anti-CD137 antibodies and hCD137 (FXa digest). […] For the running buffer, 20 mM ACES, 150 mM NaCl, 2 mM MgCl₂, 0.05% Tween20 (pH 7.4) was used, and 10 mM Glycine-HCl (pH 1.5) was used as the regeneration solution.
(§2) After capturing of the anti-CD137 antibodies suspended in TBS, 500 nM hCD137 (FXa digest) was injected into each flow cell at a flow rate of 10 μL/min for three minutes. This three-minute period served as the binding phase for hCD137 (FXa digest), and after the binding phase ended, the two-minute period of switching to the running buffer served as the dissociation phase for hCD137 (FXa digest). After completion of the dissociation phase, the regenerative solution was injected at a flow rate of 30 μl/min for 30 seconds. The above was the cycle for measuring the binding activity of anti-CD137 antibodies. The binding amount of hCD137 (FXa digest) that interacted with the anti-CD137 antibody in the binding phase was adjusted by the amount of antibody captured. Biacore T200 Evaluation Software Version 2.0 was used to display the binding amount (RU) per capture ligand 1 RU, and values of the antibody capture amount (amount of antibody captured) and antigen-binding amount were obtained. Since the binding amount of antigen reflects the binding activity, it can be said that dependence on a small molecule is recognized when the value in the presence of the small molecule (ATP, ADP or AMP) is higher than the value without the small molecule. In particular, the larger the difference is, the higher the dependence is on a small molecule.
(Surface plasmon resonance follows binding to a sensor surface in real time, without labels.)
The molecule B1 showed a binding amount of 20 RU.
The same measure, in the same setting: as for B2, the figure is 19.1 RU; as for B3, 27.4 RU.
B4 displayed a binding amount of 62.9 RU.
Still for that read-out and setting: in the case of B5 it was 19.2 RU.

For another assay, the target named is T2, biotinylated Fc-fused monkey CD137 (monkey, biotin on the AviTag).
T2 construct: also called cyCD137-Fc-BAP
T2 sequence (chain, as listed by the source limits assumed): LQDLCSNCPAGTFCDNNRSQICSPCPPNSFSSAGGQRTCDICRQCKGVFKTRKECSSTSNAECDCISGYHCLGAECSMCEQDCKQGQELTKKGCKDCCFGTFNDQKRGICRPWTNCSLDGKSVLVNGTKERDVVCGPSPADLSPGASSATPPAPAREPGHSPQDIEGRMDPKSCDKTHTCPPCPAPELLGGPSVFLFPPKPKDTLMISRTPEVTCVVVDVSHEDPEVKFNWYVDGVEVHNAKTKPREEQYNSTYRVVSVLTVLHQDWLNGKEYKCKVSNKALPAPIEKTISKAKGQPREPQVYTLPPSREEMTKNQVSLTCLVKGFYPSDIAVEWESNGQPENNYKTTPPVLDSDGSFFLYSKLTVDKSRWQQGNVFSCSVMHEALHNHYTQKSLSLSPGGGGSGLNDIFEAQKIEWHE
The assay is described as follows: ELISA, 1 mM ADP, 10 ug/mL. Further details: reference not given here. As for the experimental part:
(§3) The obtained antibodies were evaluated for binding to monkey CD137 by ELISA. The cyCD137-Fc-BAP prepared in Reference Example 1 was immobilized on Streptawell microtiter plates. After the unbound antigen was removed from the plates by washing each well of the plates with the wash buffer, the wells were blocked with 150 μL of a blocking buffer (TBS with 2% BSA) for 1 hour or more. The blocking buffer was removed from each well, and 100 μL of the purified antibodies diluted in TBS with a final concentration of 1 mM ADP, or TBS with a final concentration 1 mM ADP was added to each well. The plate to which the antibody was added was shaken at 600 rpm for 1 hour. The AP-conjugated anti-human lambda antibodies (BETHYL) diluted in TBS with a final concentration of 1 mM ADP were added to each well after washing with a wash buffer (TBS with 0.1% Tween20) containing a final concentration of 1 mM ADP. After incubation for one hour and washing with a wash buffer containing a final concentration of 1 mM […], BluePhos phosphate substrate (KPL) was added. Color development was measured by absorbance at 600 nm. Samples with a concentration-dependent increase in the absorbance ratio can be said to be bound to monkey CD137.
On the technique in general: ELISA stands for enzyme-linked immunosorbent assay.
As for B1, the absorbance ratio is 15.1.
As to B3, the absorbance ratio was 19.8.
Consider B4, for which the absorbance ratio is 32.5.
On the same count and under the same terms, as for B5, the figure is 31.9.

A further assay deals with T1, hCD137 (FXa digested). In words: SPR, 100 uM ATP. The method, then: as §1, §2
Molecule B1 came in with a binding amount of 3 RU.
As to B2, the binding amount was found to be 4.3 RU.
B3 had a binding amount of 6.3 RU.
For the molecule B4, the binding amount amounted to 15.9 RU.
On the same count and under the same terms, in the case of B5 it was 4.7 RU.

A further assay addresses T2, biotinylated Fc-fused monkey CD137. In words: ELISA, 1 mM ADP, 0.156 ug/mL. Further details: reference not given here. The method, then: as §3
For the molecule B1, the absorbance ratio stood at 0.7.
On the same count and under the same terms, in the case of B3 it was 1; in that of B4, 1.9.
Consider B5, for which the absorbance ratio was determined as 1.9.

For a further assay the target is unchanged. In words: ELISA, 1 mM ADP, 0.010 ug/mL. Further details: reference not given here. The method, then:
as §3
With B1, the absorbance ratio was 0.6.
Same read-out and setting: as for B3, the figure is 0.6; as for B4, 1.1.
Consider B5, for which the absorbance ratio was 0.9.

The next assay addresses T1, hCD137 (FXa digested). The assay is described as follows: SPR, 100 uM ADP. As for the experimental part: as §1, §2
Turning to B1, the binding amount turned out to be 33 RU.
Still for that read-out and setting: in the case of B2 it was 58.7 RU; in that of B3, 43 RU.
For B4, the binding amount came to 72.1 RU.
On the same count and under the same terms, in the case of B5 it was 55.5 RU.

A further assay deals with T1, hCD137 (FXa digested). In words: SPR, 1 mM AMP. As for the experimental part: as §1, §2
The molecule B1 had a binding amount of 2.9 RU.
Same read-out and setting: as for B2, the figure is 7.8 RU; as for B3, 6.5 RU.
The molecule B4 came in with a binding amount of 21.7 RU.
Still for that read-out and setting: in the case of B5 it was 5.7 RU.

A further assay addresses T2, biotinylated Fc-fused monkey CD137. In words: ELISA, 1 mM ADP, 0.039 ug/mL. Further details: reference not given here. The method, then:
as §3
B1: the absorbance ratio was determined as 0.5.
On the same count and under the same terms, as for B3, the figure is 0.6.
For the molecule B4, the absorbance ratio turned out to be 1.3.
Turning to B5, the absorbance ratio is 1.

Another assay shares this target. The assay is described as follows: ELISA, 1 mM ADP, 2.5 ug/mL. Further details: reference not given here. The method, then: as §3
Turning to B1, the absorbance ratio stood at 5.5.
On to B3, for which the absorbance ratio was 8.1.
Consider B4, for which the absorbance ratio came to 12.7.
Turning to B5, the absorbance ratio came out at 16.7.

The target is the same in a further assay. In words: ELISA, 1 mM ADP, 0.625 ug/mL. Further details: reference not given here. As for the experimental part:
as §3
On to B1, for which the absorbance ratio is 1.7.
Still for that read-out and setting: in the case of B3 it was 2.8; in that of B4, 4.6.
On the same count and under the same terms, as for B5, the figure is 5.7.

The target of another assay is T1, hCD137 (FXa digested). In words: SPR, 100 uM AMP. The method, then:
as §1, §2
B1 displayed a binding amount of 3.3 RU.
As to B2, the binding amount worked out at 4.7 RU.
B3 displayed a binding amount of 4.8 RU.
The same measure, in the same setting: in the case of B4 it was 13.8 RU; in that of B5, 4.1 RU.

Another assay addresses T1, hCD137 (FXa digested). In words: SPR, 1 mM ATP. As for the experimental part: as §1, §2
As to B1, the binding amount is 6.2 RU.
Turning to B2, the binding amount came to 11.7 RU.
For the molecule B3, the binding amount came out at 12.6 RU.
The same measure, in the same setting: in the case of B4 it was 27.5 RU; in that of B5, 11.5 RU.

For the next assay, the target named is T1, hCD137 (FXa digested). The assay is described as follows: SPR, no small molecule. The method, then:
as §1, §2
As to B1, the binding amount stood at 1.5 RU.
The same measure, in the same setting: as for B2, the figure is 2.9 RU.
Still for that read-out and setting: in the case of B3 it was 3.7 RU; in that of B4, 3.8 RU; in that of B5, 3.3 RU.

The record behind these values is patent US20230272099A1 (Chugai, published 2023).
